Experimental data as given in patent US12371675B2, “Process and microorganism for synthesis of adipic acid from carboxylic acids” (THE GOVERNING COUNCIL OF THE UNIVERSITY OF TORONTO, priority 2015, dated 2025).

B1: EREDCA: 2-enoate reductase (ERED) from Clostridium acetobutylicum DSM 1731 (protein)
chain: MNKYKKLFEPIKIGKCEIKNRFALAPMGPLGLADSEGGFNQRGIDYYTERAKGGTGLIITGVTFVDNEVEEHGMPNCPCPTHNPVQFVRTGREMTERIHAYNSKVFLQMSGGFGRVTIPTNLGEFPPVAPSPIQHRWLDKTCRELTVDEIKSIVKKFGEGAFNAKRAGFDGVQIHAVHEGYLIDQFAISLFNHRTDEYGGSLENRLRFAREIVEEIKNRCGEDFPVTLRYSPKSFIKDLRDGALPGEEFVEKGRDLDEGVEAAKLLVSYGYDALDTDVGSYDSWWWSHPPMYQEKGLYRKYAKLMKDTVDVPVICAGRMDDPDMALEAVENGTCDVISLGRPLLADPDYVNKLRSNKCKSIRPCISCQEGCMGRVQHYSMLNCAVNPQACKERANSLTPIIKSKKVLIVGGGVAGCEAARVLALRGHEPVLYEKSNRLGGNLIPGGAPSFKEDDIALADWYTNTLKELNVEVNLNSEVTKEQILNSKFDTVIVATGSTPKVFPLGDDEKVFTAAEVLLGQKDPGETTVVVGGGLVGCELALDLAKKGKKVTIVEALNKILALNGPLCSANSEMLQKLIPFNGIDVKANSKVKGYKNGLLKMETENGIEELPCDSVILSVGYKEENSLYKELEFEIPEIYLLGDARKVSNIMYGIWDAFEVANHI
B2: EREDBC: 2-enoate reductase (ERED) from Bacillus coagulans 36D1 (protein)
chain: MKYKKLFETVKIRNVELKNRYAMAPMGPLGLADAEGGFNQRGIEYYTARARGGTALIITGVTFVDNEVEEHGMPNVPCPTHNPVHFVRTSKEMTERIHAYDSKIFLQMSAGFGRVTIPTNLGEYPPVAPSPIPHRWLDKTCRELTVEEIHSIVRKFGDGAFNAKRAGFDGVQIHAVHEGYLLDQFAIAFFNKRTDAYGGPLENRLRFAREIVEEIKQRCGEDFPVTLRFSPKSFIKDWREGALPGEEFEEKGRDLDEGIEAAKLLVSYGYDALDVDVGSYDSWWWSHPPMYQKKGLYIPYARLVKEAVDVPVLCAGRMDNPDLALAALEDGACDIISLGRPLLADPDYVNKLRIGQVADIRPCLSCHEGCMGRIQEYSSLGCAVNPAACREKEAALTPALKKKRVLIAGGGVAGCEAARVLALRGHEPVIFEKSNRLGGNLIPGGAPDFKEDDLALVAWYEHTLERLGVEIHLNTALTKEEILAANVDAVLIATGSNPKILPLDGKNKVFTAEDVLLDKVDAGQHVVIVGGGLVGCELALNLAEKGKDVSLVEMQDKLLAVNGPLCHANSDMLERLVPFKGVQVYTSSKIVDTTEKTAVVDVDGELREIEADSIVLAVGYSAEKSLYEDLKFEVADLHVVGDARKVANIMYAIWDAYEVAANL

Assays:
[1] = In vitro reductase activity of purified EREDs, NADH oxidation at 340 nm; format: biochemical
Method: (§1) The C═C reducing activity of EREDs was examined. Enzyme activity of purified EREDs was measured spectrophotometrically in 96-well plates by following incubation for 3-5 min at 30° C. in the anaerobic chamber as described in M. Buhler, H. Simon, Hoppe-Seyler's Zeitschrift fur Physiologische Chemie 1982, 363, 609-625. Buffers and reagents were degassed and sparged with Ar. Reaction mixture contained potassium phosphate (100 mM and pH 7.0), NADH (0.5 mM), indicated substrates, and proteins (0.1-50 μg) in a final volume of 200 μL. Enzyme reactions were monitored by following the decrease in absorbance at 340 nm (ε340 nm=6,220/M·cm) due to oxidation of NADH to NAD+.
(§2) For in vitro biochemical characterization, enzyme activities of purified EREDs were measured with 2-hexenedioic acid, cis-cis-muconic acid, trans-trans muconic acid, trans-cinnamic acid, trans-2-methyl-2-butenoic acid, trans-2-butenoic acid, acrolein, 2-cyclohexen-1-one, and 3-methyl-2-cyclohexenone. […] [Feng, J. et al. Discovery and Characterization of BlsE, a Radical S-Adenosyl-L-methionine Decarboxylase Involved in the Blasticidin S Biosynthetic Pathway. PLoS ONE 8 (2013)].

[2] = Whole-cell biotransformation of muconic acid by E. coli expressing EREDs; format: cell-based; settings: 0.7 mM, 24-hr incubation
Method: After a 24-hr incubation, no muconic acid or 2-hexenedioic acid were detected in the culture, and a 99% yield of adipic acid was obtained (FIGS. 8a, 8b, and 8c). […] The 3-hexenedioic acid-like compound appears to be an inefficient substrate for these EREDS. This is similar to the mutated 2,4-dienoyl-CoA reductases from E. coli, which catalyze hydrogenation of 2,4-dienoyl CoA into 3-enoyl CoA (Tu, X., Hubbard, P. A., Kim, J. J. P. & Schulz, H. Two distinct proton donors at the active site of Escherichia coli 2,4-dienoyl-CoA reductase are responsible for the formation of different products. Biochemistry 47, 1167-1175 (2008).).

[3] = In vitro reductase activity of purified EREDs, NADH oxidation at 340 nm; format: biochemical; settings: for activity against 2-hexenedioic acid: purified enzyme, anaerobic, NADH, aqueous buffer
Method: as §1, §2
To increase the dissolved substrate concentration, 2-hexenedioic acid was dissolved in a reaction mixture containing […] (final concentration) isopropanol, and kinetic constants of EREDBC and EREDCA were determined.

[4] = Oxygen tolerance (residual activity) of purified EREDs on storage; format: physicochemical; settings: for retained initial activity, storage in the absence of oxygen / retained initial activity, storage in the presence of air: three days; for retained initial activity, storage in the absence of oxygen: 4° C.
Method: Purified EREDs were placed in 5 mL glass tubes tightly capped with air-tight rubber stoppers. Anaerobic tubes were filled with anaerobic gas mixture (80% N2, 10% H2, and 10% CO2) and aerobic tubes were filled with atmospheric air. The tubes were kept on ice for a week and a small aliquots of EREDs (5 ul) were withdrawn by a syringe every day to measure residual activity in a reaction mixture containing 100 mM potassium phosphate buffer (pH 7.0), 0.5 mM NADH, indicated substrates (0.25 mM 2-hexenedioic acid for EREDBC and 0.75 mM cinnamic acid for EREDCA, and protein (1 μg) in a final volume of 200 μL.

[5] = purified enzyme, anaerobic, NADH

Molecule | activity against trans-2-butenoic acid [1, 5] | activity against trans-cinnamic acid [1, 5] | yield of adipic acid from cis,cis-muconic acid [2] | yield of adipic acid from trans,trans-muconic acid [2] | activity against 2-hexenedioic acid [3] | residual activity, storage in the presence of air ([4]; one day, air (21% oxygen)) | retained initial activity, storage in the absence of oxygen [4] | retained initial activity, storage in the presence of air ([4]; air (21% oxygen)) | Activity [U/mg protein] trans-Cinnamic acid [1.0 mM] ([1]; 1.0 mM, titrated with 1N NaOH) | Activity [U/mg protein] Acrolein [15 mM] ([1]; 15 mM) | Activity [U/mg protein] trans-2-Butenoic acid [50 mM] ([1]; 50 mM) | Activity [U/mg protein] 2-Cyclohexen-1-one [200 mM] ([1]; 200 mM) | Activity [U/mg protein] 3-Methyl-2-cyclohexenone [200 mM] ([1]; 200 mM) | activity against 2-cyclohexen-1-one [1, 5] | activity against 3-methyl-2-cyclohexenone [1, 5] | activity against acrolein [1, 5] | Activity [U/mg protein] 2-Hexenedioic acid [29 mM] ([3]; 29 mM, dissolved in aqueous buffer) | Activity [U/mg protein] 2-Hexenedioic acid [35 mM] ([3]; 35 mM, dissolved in 0.25 mM isopropanol)
B1 | 0.008 U/mg protein | 3.5 U/mg protein | 99% | 99% | up to 0.05 U/mg protein | 30% | 19% | completely inactivated | – | – | – | – | – | – | – | – | – | –
B2 | 0.036 U/mg protein | 0.39 U/mg protein | 99% | 99% | 0.09 U/mg protein | – | 35% | 33% | 0.39 ± 0.001 U/mg protein | 0.036 ± 0.005 U/mg protein | 0.037 ± 0.010 U/mg protein | 0.08 ± 0.03 U/mg protein | 0.13 ± 0.03 U/mg protein | 0.08 U/mg protein | 0.13 U/mg protein | 0.037 U/mg protein | 0.09 ± 0.02 U/mg protein | 2.3 ± 0.04 U/mg protein
